Laboratory results published in PMC7589778 (Viruses, 2020).

B1: Human mitochondrial LysRS with a C-terminal HA-tag (enzyme)
chain: not shown
modifications: homodimer; mature mitochondrial form (19 specific + 576 shared residues); HA-tag left out

Legend:
Experiment in all cases: AlphaScreen or HTRF
Settings in all cases: both partners purified
[1] = target: Human mitochondrial LysRS with a C-terminal HA-tag (human, UniProt Q15046-2 1-625)
[2] = target: T1, Full-length integrase from HIV-1 with a C-terminal His-tag (HIV-1)
T1 construct: source: E. coli BL21(DE3), purified (Ni-NTA, Mono S); not shown: His6, C-terminal, kept

[3] = target: B1

Row | Binder | Kd [1] [nM] | further results
1 | HIV-1 integrase catalytic core domain (deletion of the NTD and the CTD), C-terminal His-tag (domain or fragment, homodimer; mature mitochondrial form (19 specific + 576 shared residues); HA-tag left out) MHGQVDCSPGIWQLDCTHLEGKVILVAVHVASGYIEAEVIPAETGQETAYFLLKLAGRWPVKTVHTDNGSNFTSTTVKAACWWAGIKQEFGIPYNPQSQGVIESMNKELKKIIGQVRDQAEHLKTAVQMAVFIHNFKRKGGIGGYSAGERIVDIIATDIQTKE | > 400 | 
2 | C-terminal domain of HIV-1 integrase starting at residue 213, C-terminal His-tag (domain or fragment, homodimer; mature mitochondrial form (19 specific + 576 shared residues); HA-tag left out) LQKQITKIQNFRVYYRDSRDPVWKGPAKLLWKGEGAVVIQDNSDIKVVPRRKAKIIRDYGKQMAGDDCVASRQDED | 190 | 
3 | HIV-1 integrase with a deletion of the NTD, C-terminal His-tag (domain or fragment, homodimer; mature mitochondrial form (19 specific + 576 shared residues); HA-tag left out) MHGQVDCSPGIWQLDCTHLEGKVILVAVHVASGYIEAEVIPAETGQETAYFLLKLAGRWPVKTVHTDNGSNFTSTTVKAACWWAGIKQEFGIPYNPQSQGVIESMNKELKKIIGQVRDQAEHLKTAVQMAVFIHNFKRKGGIGGYSAGERIVDIIATDIQTKELQKQITKIQNFRVYYRDSRDPVWKGPAKLLWKGEGAVVIQDNSDIKVVPRRKAKIIRDYGKQMAGDDCVASRQDED | 3 | 
4 | B1 |  | Kd [2]: 2.6 nM
5 | IN-CTD222 with a deletion of 15 C-terminal residues, C-terminal His-tag (domain or fragment, source: E. coli BL21(DE3), purified (Ni-NTA, Mono S); not shown: His6, C-terminal, kept) NFRVYYRDSRDPVWKGPAKLLWKGEGAVVIQDNSDIKVVPRRKAKIIRDYGK |  | Kd [3]: 142 nM
